Results reported in patent US20230365684A1 (Janssen / Centocor, published 2023).
Where a chain is given by its changes, count along the chain named. Like-named read-outs stand apart in the source and are kept apart here. One block for each binder: values may come before it.

Assays:
[1] = target: T1, human CD33 (full length ECD), recombinant (human, UniProt P20138 18-259); experiment: SPR (Biacore 8K), vHH-mono-Fc captured by anti-human Fc, antigen in solution
T1 construct: extracellular domain; Tag or HSA fusion partner unknown; also called hu CD33 (FL ECD); hCD33-FL ECD
Protocol: (§1) The binding affinity of anti-CD33 antibodies and Llama vHHs to the recombinant human CD33 (FL ECD or IgC2 domain) was determined by surface plasmon resonance (SPR) using Biacore 8K instrument. […] The association and dissociation were monitored for 2 and 30 minutes, respectively, using a flow rate of 50 μL/min. Raw binding data was referenced by subtracting the analyte binding signals from blanks and analyzed using a 1:1 Langmuir binding model using the Biacore software to obtain the kinetics which were used to calculate the binding affinity.
(§2) The anti-CD33 Llama vHHs on a mono-Fc backbone were captured using an anti-human Fc antibody and the antigens were injected in solution.

[2] = target: T2, human CD33 IgC2 domain, recombinant (human, UniProt P20138 136-259); experiment: as above
T2 construct: domain: IgC2; also called hu CD33 (IgC2); hCD33-IgC2
Protocol: as §1, §2

[3] = target: T2, human CD33 IgC2 domain, recombinant; experiment: SPR, Biacore 8K, 25 °C, vHH-mono-Fc captured by anti-Fc antibody, CD33-hu-domain injected as analyte, 1:1 binding model
Protocol: as §1, §2

[4] = target: T1, human CD33 (full length ECD), …; experiment: SPR, Biacore 8K, 25 °C, vHH-mono-Fc captured by anti-Fc antibody, CD33-hu-FL injected as analyte, 1:1 binding model [contd]
Protocol: as §1, §2

[5] = target: T1, human CD33 (full length ECD), …; experiment: as above; remark: listed apart in the source
Protocol: as §1, §2

[6] = target: T2, human CD33 IgC2 domain, recombinant; experiment: SPR, Biacore 8K, 25 °C, vHH-mono-Fc captured by anti-Fc antibody, CD33-hu-domain injected as analyte, 1:1 binding model [contd]
Protocol: as §1, §2

[7] = target: T3, human CD33 on cells (MOLM-13, Kasumi-1, OCI-AML-3, Kasumi-3) (human, UniProt P20138 18-364); experiment: FACS binding on MOLM-13 cells
T3 construct: whole, on cells; also called CD33 expressing cells; CD33+ cell lines

[8] = target: T3, human CD33 on cells (MOLM-13, Kasumi-1, …); experiment: FACS binding on Kasumi-1 cells
[9] = target: T3, human CD33 on cells (MOLM-13, Kasumi-1, …); experiment: FACS binding on OCI-AML-3 cells
[10] = target: T3, human CD33 on cells (MOLM-13, Kasumi-1, …); experiment: flow cytometry on MOLM-13 cells, 4 °C, serial dilutions of the antibody
Protocol: (§3) Cells were harvested, washed once with PBS and then stained with the fixable viability dye at room temperature for 30 min. Following incubation, cells were washed twice with FACS buffer (PBS+2% FBS). Cells were then used for binding assay with test antibodies. 100,000 cells were stained with the test antibodies in a 100 ul staining volume. Antibodies for staining were diluted in FACS buffer and incubated with the cells for 40 mins on ice, followed by washing 2X with FACS buffer. Test antibodies were then detected using the PE conjugated Goat F(ab′)2 Anti-Human IgG-Fc (ab98596; Abcam) for 40 minutes on ice. Following washing, data was acquired on the Novocyte flow cytometer (ACEA). Cells were gated on FSC/SSC, followed by live cell gating and doublet discrimination. Data was analyzed using Flow Jo (BD).
(§4) Median fluorescence intensity values were used to plot a 4-parameter non-linear regression analysis curve after subtracting the MFI of the secondary only sample.
(§5) The binding EC₅₀ values of CD33 antibodies to high (MOLM-13), medium (Kasumi-1) and low (OCI-AML-3) cell lines were assayed. Binding was carried out at 4° C. with serial dilutions of the antibody.

[11] = target: T3, human CD33 on cells (MOLM-13, Kasumi-1, …); experiment: flow cytometry on OCI-AML-3 cells, 4 °C, serial dilutions of the antibody
Protocol: as §3, §4, §5

[12] = target: T3, human CD33 on cells (MOLM-13, Kasumi-1, …); experiment: flow cytometry on OCI-AML-3 cells, 4 °C, detection with PE goat F(ab')2 anti-human IgG-Fc [contd]
[13] = target: T3, human CD33 on cells (MOLM-13, Kasumi-1, …); experiment: flow cytometry on Kasumi-1 cells, 4 °C, serial dilutions of the antibody
Protocol: as §3, §4, §5

[14] = target: T3, human CD33 on cells (MOLM-13, Kasumi-1, …); experiment: flow cytometry on OCI-AML-3 cells, 4 °C, detection with PE goat F(ab')2 anti-human IgG-Fc [contd]; remark: listed apart in the source
[15] = target: T1, human CD33 (full length ECD), …; experiment: SPR (Biacore 8K), antibody captured by anti-human Fc, antigen in solution
Protocol: (§6) Affinities (KD) for the interaction of anti-CD33 antibodies human CD33 (full length ECD and IgC2 domain) were obtained by SPR. The anti-CD33 antibodies were captured using an anti-human Fc antibody and the antigens were injected in solution.
as §1

[16] = target: T2, human CD33 IgC2 domain, recombinant; experiment: as above
Protocol: as §6, §1

[17] = target: T3, human CD33 on cells (MOLM-13, Kasumi-1, …); experiment: flow cytometry on MOLM-13 cells, 4 °C, detection with PE goat F(ab')2 anti-human IgG-Fc
Protocol: MOLM-13, Kasumi-1, OCI-AML-3 and HDLM-2 cells were stained for viability by fixable violet dead cell stain (L34955, ThermoFisher) according to the manufacturer's protocol. Cells were harvested, washed once with PBS and then stained with the fixable viability dye at room temperature for 30 min. Following incubation, cells were washed twice with FACS buffer (PBS+2% FBS). Cells were then used for binding assay with test antibodies. 100,000 cells were stained with the test antibodies in a 100 ul staining volume. Antibodies for staining were diluted in FACS buffer and incubated with the cells for 40 mins on ice, followed by washing 2X with FACS buffer. Test antibodies were then detected using the PE conjugated Goat F(ab′)2 Anti-Human IgG-Fc (ab98596; Abcam) for 40 minutes on ice. Following washing, data was acquired on the Novocyte flow cytometer (ACEA). […] Data was analyzed using Flow Jo (BD).
as §4
Binding was performed by incubating the cells with the serial dilutions of the CD33 antibody at 4° C. followed by detection with PE conjugated Goat F(ab′)2 Anti-Human IgG-Fc antibody. […] Median fluorescence intensity (MFI) versus log concentration of antibody are plotted.

T1 sequence (P20138 18-259): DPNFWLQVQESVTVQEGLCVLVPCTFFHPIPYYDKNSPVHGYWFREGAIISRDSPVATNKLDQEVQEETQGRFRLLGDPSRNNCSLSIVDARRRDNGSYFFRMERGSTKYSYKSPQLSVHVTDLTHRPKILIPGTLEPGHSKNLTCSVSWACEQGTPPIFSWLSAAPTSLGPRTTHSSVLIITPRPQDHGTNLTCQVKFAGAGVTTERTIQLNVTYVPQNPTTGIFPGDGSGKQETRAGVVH
T2 sequence (P20138 136-259 limits assumed): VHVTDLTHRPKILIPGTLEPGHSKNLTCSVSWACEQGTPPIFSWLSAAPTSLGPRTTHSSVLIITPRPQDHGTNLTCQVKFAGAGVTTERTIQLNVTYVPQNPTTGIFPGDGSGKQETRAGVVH
T3 sequence (P20138 18-364): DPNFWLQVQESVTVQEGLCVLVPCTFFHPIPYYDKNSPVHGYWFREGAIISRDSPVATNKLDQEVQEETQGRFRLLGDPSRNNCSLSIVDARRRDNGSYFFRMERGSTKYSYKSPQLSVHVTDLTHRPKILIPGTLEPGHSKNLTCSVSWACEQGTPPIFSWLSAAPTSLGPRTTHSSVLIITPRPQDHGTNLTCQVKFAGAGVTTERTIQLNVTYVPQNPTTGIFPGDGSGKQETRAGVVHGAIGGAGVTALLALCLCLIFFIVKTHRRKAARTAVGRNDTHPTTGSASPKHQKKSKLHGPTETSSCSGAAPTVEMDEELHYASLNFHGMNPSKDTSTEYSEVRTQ

- Kd [1]: 0.847 nM
- Kd [2]: 3.38 nM
- kon [3]: 962000 M⁻¹ s⁻¹
- koff [4]: 0.00117 s⁻¹
- kon [4]: 1.38e+06 M⁻¹ s⁻¹
B1: C33B1780 (llama vHH on mono-Fc backbone) (Fc fusion)
chain: EVQLVESGGGLVQPGGSLRLSCAVFGFSLSDYAIGWFRQAPGKEREKVSCISESDGRTYLSDSVKSRFTISRDNGKNTVYLQMNNLKPDDTGVYYCATVDQAISESSYHCEKGFGSWGQGTQVTVSS
notes: not shown: mono-Fc backbone

- Kd [1]: 0.661 nM
- Kd [2]: 3.31 nM
- koff [5]: 0.000928 s⁻¹
- kon [5]: 1.4e+06 M⁻¹ s⁻¹
- koff [6]: 0.0034 s⁻¹
- kon [6]: 1.03e+06 M⁻¹ s⁻¹
B2: C33B1785 (llama vHH on mono-Fc backbone) (Fc fusion)
chain: B1 chain with E1Q, L11S
notes: not shown: mono-Fc backbone

- EC50 [7]: 134 nM
- EC50 [8]: 82.2 nM
- EC50 [9]: 16.4 nM
B3: C33B904 (antibody, V domains shown)
VH: EVQLVESGGGLVQPGRSLRLSCAASGFTFDDYAMHWVRQAPGKGLEWVSGIGWSGGSIVYADSVKGRFTISRDNAKNSLYLQMNSLRAEDTALYYCAKDSPYGDFFDYWGQGTLVTVSS
VL: DIVMTQSPDSLAVSLGERATINCKSSQTVFYSSNNKNYLAWYQQKPGQPPKLLISWASTRKSGVPDRFSGSGSGTDFTLTVSSLQAEDVAVYYCQHYYSTPYTFGQGTKLEIK
notes: also called anti-CD33 antibody (clone C33B904); anti-CD33 clone C33B904

- EC50 [10]: 56 nM
- EC50 [11]: 0.6 nM
- EC50 (read off the curve) [12]: ~0.09 µg/mL
B4: C33B1477 (antibody, V domains shown)
VH: EVQLVESGGGLVQPGGSLKVSCEASGFTFSVSAIHWVRQASGKGLEWIGRIRSKGNSYATAYAASVKGRFTISRDDSKNTAYLQMDSLKTEDTAVYYCTRHNDKWNYYGLDVWGQGTTVTVSS
VL: DIVMTQSPLSLPVTPGEPASISCKSSQSLLFSNGYKFLDWYLQRPGQSPQLLIYLGSYRASGVPDRFSGSGSGTDFTLKISRVEAEDVGLYYCMQALQTPPTFGGGTKVEIK
notes: also called sCD33B1477

- EC50 [10]: 35.6 nM
- EC50 [13]: 0.13 nM
- EC50 [11]: 15.3 nM
- EC50 (read off the curve) [14]: ~2 µg/mL
B5: C33B806.006 (antibody, V domains shown)
VH: QLQLQESGPGLVKPSETLSLTCTVSGGSISSSSYYWGWIRQPPGKGLDWIGSINYSGSTYYNPSLKSRVTISVDTSKIQFSLKLRSVTAADTAVYYCARLDGYESPFDYWGQGTLVTVSS
VL: DIQMTQSPSSVSASVGDRVTITCRASQGISSWLAWYQQKPGKAPKLLIYAASSLQSGVPSRFSGSGSGTDFTLTISSLQPEDFATYYCQQANSFPFTFGPGTKVDIK

- Kd [15]: > 10 nM
- EC50 [10]: 32.7 nM
- EC50 [13]: 73.4 nM
B6: C33B1522 (antibody, V domains shown)
VH: QVQLQESGPGLVKPSETLSLTCTVSGGSISSYYWGWIRQPPGKGLEWIGYIYYSGSTNYNPSLKSRVTISVDTSKNQFSLKLSSVTAADTAVYYCARMWEILGFDPWGQGTLVTVS
VL: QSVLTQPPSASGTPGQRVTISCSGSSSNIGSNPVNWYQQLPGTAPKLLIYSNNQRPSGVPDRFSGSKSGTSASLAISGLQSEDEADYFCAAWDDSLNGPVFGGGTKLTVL
- binding result [16]: no binding (tested: 40 nM-1.6 nM CD33 antigen)

- EC50 [10]: 0.5 nM
- EC50 [13]: 17.1 nM
- EC50 [11]: 0.46 nM
- EC50 (read off the curve) [17]: ~0.08 µg/mL
- EC50 (read off the curve) [14]: ~0.08 µg/mL
B7: C33B836.006 (antibody, V domains shown)
VH: QVQLVQSGSELRKPGASVKVSCKASGYTFTNYAMNWVRQAPGQGLEWMGWINTNTGNPTYAQGFTGRFVFSLDTSVSSAYLQISSLKAEDTAMYYCATDRDRGTDYWGQGTLVTVSS
VL: QSALTQPASVSGSPGQSITISCTGTSSDVGDYNYVSWYQQHPGKVPKLMIYDVSNRPSGVSNRFSGSMSGNTASLTISGLQAEDEADYYCSSYSSSSALEVFGGGTKLTVL
notes: also called sC33B836.006
